Assay results published in publication PMC3843637.
Where “and” joins values, the source holds several entries; their conditions need not be identical. Identical values can stand only once.

Columns and labels:
[1] = target: S3LMH2EEE/S4LMH2 heterotrimer (human) (UniProt P84022); test: ITC
[2] = target: phosphomimetic Smad3 fragment S3LMH2EEE (linker and MH2 domain, amino acids 167 to 425) (human) (UniProt P84022); test: ITC

Kd [1]: 1500 nM and 1370 nM | Kd [2]: 1170 nM and 1350 nM
B1: MAN1 fragment from amino acids 755 to 911 (MAN1Luhm) (domain or fragment)
chain: DKILVIPSKVWQGQAFHLDRRNSPPNSLTPCLKIRNMFDPVMEIGDQWHLAIQEAILEKCSDNDGIVHIAVDKNSREGCVYVKCLSPEYAGKAFKALHGSWFDGKLVTVKYLRLDRYHHRFPQALTSNTPLKPSNKHMNSMSHLRLRTGLTNSQGSS
